Experimental data published in patent US20230340151A1 (Pfizer, published 2023).

What was measured:
[1] = target: T1, GUCY2C_ECD Peptide 8 (human); assay: peptide DELFIA ELISA;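 further: epitope mapping using overlapping 20-mer GUCY2C peptides covering residues 1-440, extracellular into transmembrane domain, coated at 20 µg/ml as target antigen and probed with antibodies or GUCY2C-CD3 bispecifics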
T1 peptide: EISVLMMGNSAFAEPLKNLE
Method: (§1) Arrays were reconstituted with acetonitrile to 100 μg/ml and were then further diluted to 20 μg/ml with sodium carbonate/bicarbonate buffer. Purified antibodies or GUCY2c-CD3 bispecifics were then tested by Delfia ELISA for binding to the different peptides using Delfia ELISA methods previously discussed, with diluted peptides used as the target antigen.

[2] = target: T2, GUCY2C_ECD Peptide 21 (human); assay: peptide DELFIA ELISA;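 further: epitope mapping using overlapping 20-mer GUCY2C peptides covering residues 1-440, extracellular into transmembrane domain, coated at 20 µg/ml as target antigen and probed with antibodies or GUCY2C-CD3 bispecifics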
T2 peptide: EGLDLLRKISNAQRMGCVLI
Method: as §1

[3] = target: T3, GUCY2C_ECD Peptide 37 (human); assay: peptide DELFIA ELISA;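 further: epitope mapping using overlapping 20-mer GUCY2C peptides covering residues 1-440, extracellular into transmembrane domain, coated at 20 µg/ml as target antigen and probed with antibodies or GUCY2C-CD3 bispecifics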
T3 peptide: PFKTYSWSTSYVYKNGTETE
Method: as §1

[4] = target: T4, GUCY2C_ECD Peptide 39 (human); assay: peptide DELFIA ELISA;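 further: epitope mapping using overlapping 20-mer GUCY2C peptides covering residues 1-440, extracellular into transmembrane domain, coated at 20 µg/ml as target antigen and probed with antibodies or GUCY2C-CD3 bispecifics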
T4 peptide: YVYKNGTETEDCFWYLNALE
Method: as §1

[5] = target: T5, GUCY2C_ECD Peptide 42 (human); assay: peptide DELFIA ELISA
T5 peptide: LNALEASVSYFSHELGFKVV
Method: as §1

[6] = target: T6, GUCY2C_ECD Peptide 45 (human); assay: peptide DELFIA ELISA
T6 peptide: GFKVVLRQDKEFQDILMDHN
Method: as §1

[7] = target: T7, GUCY2C_ECD Peptide 46 (human); assay: peptide DELFIA ELISA
T7 peptide: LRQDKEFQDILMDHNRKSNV
Method: as §1

[8] = target: T8, GUCY2C_ECD Peptide 48 (human); assay: peptide DELFIA ELISA
T8 peptide: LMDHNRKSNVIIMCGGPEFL
Method: as §1

[9] = target: T9, GUCY2C_ECD Peptide 54 (human); assay: peptide DELFIA ELISA
T9 peptide: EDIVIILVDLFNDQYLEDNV
Method: as §1

[10] = target: T10, GUCY2C_ECD Peptide 62 (human); assay: peptide DELFIA ELISA
T10 peptide: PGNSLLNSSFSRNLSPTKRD
Method: as §1

[11] = target: T11, GUCY2C_ECD Peptide 66 (human); assay: peptide DELFIA ELISA
T11 peptide: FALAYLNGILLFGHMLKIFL
Method: as §1

[12] = target: T12, GUCY2C_ECD Peptide 72 (human); assay: peptide DELFIA ELISA
T12 peptide: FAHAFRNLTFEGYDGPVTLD
Method: as §1

[13] = target: T13, GUCY2C_ECD Peptide 74 (human); assay: peptide DELFIA ELISA
T13 peptide: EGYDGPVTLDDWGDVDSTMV
Method: as §1

[14] = target: T14, CID1875 (human-chicken GUCY2c chimera) (human/chicken); assay: flow cytometry on cells displaying the construct
T14 chain: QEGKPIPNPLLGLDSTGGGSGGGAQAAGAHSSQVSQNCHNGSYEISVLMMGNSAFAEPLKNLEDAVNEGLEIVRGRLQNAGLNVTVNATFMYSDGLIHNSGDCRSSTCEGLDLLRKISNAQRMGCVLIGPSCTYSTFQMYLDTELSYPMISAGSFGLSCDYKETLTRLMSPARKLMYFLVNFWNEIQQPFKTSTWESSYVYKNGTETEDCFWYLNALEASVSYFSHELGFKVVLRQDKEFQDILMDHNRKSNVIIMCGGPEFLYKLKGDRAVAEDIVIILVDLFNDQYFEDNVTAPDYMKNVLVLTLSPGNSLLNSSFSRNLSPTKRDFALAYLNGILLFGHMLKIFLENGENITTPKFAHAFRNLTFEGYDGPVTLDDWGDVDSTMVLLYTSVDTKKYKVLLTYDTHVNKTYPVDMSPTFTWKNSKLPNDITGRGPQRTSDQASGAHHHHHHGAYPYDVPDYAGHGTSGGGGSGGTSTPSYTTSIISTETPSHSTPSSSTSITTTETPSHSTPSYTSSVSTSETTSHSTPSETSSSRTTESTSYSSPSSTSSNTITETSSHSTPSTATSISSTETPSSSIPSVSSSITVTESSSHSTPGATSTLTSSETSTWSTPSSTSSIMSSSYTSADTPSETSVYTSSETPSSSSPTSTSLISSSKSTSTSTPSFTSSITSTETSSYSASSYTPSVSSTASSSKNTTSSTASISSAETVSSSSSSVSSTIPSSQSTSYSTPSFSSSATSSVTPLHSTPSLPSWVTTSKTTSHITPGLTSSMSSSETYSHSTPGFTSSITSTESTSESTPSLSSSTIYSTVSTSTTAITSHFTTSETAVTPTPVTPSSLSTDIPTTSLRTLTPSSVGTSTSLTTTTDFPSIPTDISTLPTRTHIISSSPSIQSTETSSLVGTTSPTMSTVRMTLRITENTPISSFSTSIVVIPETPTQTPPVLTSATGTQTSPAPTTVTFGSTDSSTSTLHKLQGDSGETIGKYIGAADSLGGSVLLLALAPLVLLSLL
From the text: (§2) Cells were then washed three times with PBS+0.5% BSA buffer. […] Cells were washed three times with PBS+0.5% BSA buffer and then analyzed on a flow cytometer.
(§3) MFI (median fluorescence intensity) of anti-GUCY2c antibody binding to the cells was normalized to expression on cell surface measured by MFI of anti-tag antibodies. All the cells expressed V5 and HA on the cell surface for expression normalization.

[15] = target: T15, CID1877 (human-chicken GUCY2c chimera) (human/chicken); assay: flow cytometry on cells displaying the construct
T15 chain: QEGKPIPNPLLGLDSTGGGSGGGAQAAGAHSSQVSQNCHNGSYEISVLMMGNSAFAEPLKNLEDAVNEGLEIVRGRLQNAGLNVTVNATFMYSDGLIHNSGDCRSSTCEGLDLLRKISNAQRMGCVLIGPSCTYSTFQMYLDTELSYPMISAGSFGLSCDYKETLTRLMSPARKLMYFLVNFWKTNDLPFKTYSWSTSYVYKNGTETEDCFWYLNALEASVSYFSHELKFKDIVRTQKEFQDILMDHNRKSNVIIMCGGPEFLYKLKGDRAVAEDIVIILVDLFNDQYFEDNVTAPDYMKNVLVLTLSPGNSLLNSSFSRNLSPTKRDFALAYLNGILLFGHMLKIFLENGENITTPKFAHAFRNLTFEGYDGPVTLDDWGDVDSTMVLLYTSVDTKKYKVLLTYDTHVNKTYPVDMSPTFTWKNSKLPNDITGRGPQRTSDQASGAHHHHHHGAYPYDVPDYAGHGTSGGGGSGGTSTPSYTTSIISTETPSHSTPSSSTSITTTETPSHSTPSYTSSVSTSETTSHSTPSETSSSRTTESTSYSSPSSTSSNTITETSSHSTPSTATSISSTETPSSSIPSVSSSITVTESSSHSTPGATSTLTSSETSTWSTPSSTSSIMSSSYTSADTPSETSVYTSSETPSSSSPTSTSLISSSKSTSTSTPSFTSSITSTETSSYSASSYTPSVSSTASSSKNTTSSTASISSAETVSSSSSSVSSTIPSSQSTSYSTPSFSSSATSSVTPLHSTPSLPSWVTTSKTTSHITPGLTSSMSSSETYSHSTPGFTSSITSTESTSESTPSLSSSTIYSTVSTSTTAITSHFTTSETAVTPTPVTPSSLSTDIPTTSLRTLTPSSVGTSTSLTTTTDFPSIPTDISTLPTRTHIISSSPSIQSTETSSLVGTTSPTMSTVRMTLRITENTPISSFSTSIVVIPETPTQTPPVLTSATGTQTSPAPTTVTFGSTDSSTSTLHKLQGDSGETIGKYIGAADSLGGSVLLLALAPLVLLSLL
From the text: as §2, §3

B1: GUCY2C-1608 (bispecific antibody)
chain 1: DIQLTQSPSSLSASVGDRVTITCRASESVDYYGSSLLQWYQQKPGKAPKLLIYAASKLASGVPSRFSGSGSGTDFTLTISSLQPEDFATYYCQQTRKAYTFGQGTKLEIKGGGSGGGGEVQLVESGGGLVQPGGSLRLSCAASGFTFSDYYMTWVRQAPGKGLEWVAFIRNQARGYTSDHNPSVKGRFTISRDNAKNSLYLQMNSLRAEDTAVYYCARDRPSYYVLDYWGQGTTVTVSSGCPPCPAPEAAGAPSVFLFPPKPKDTLMISRTPEVTCVVVDVSHEDPEVKFNWYVDGVEVHNAKTKPREEQYNSTYRVVSVLTVLHQDWLNGKEYKCKVSNKALPAPIEKTISKAKGQPREPQVCTLPPSREEMTKNQVSLWCLVKGFYPSDIAVEWESNGQPENNYKTTPPVLDSDGSFFLYSKLTVDKSRWQQGNVFSCSVMHEALHNHYTQKSLSLSPG
chain 2: DIQMTQSPSSLSASVGDRVTITCTSSQSLFNVRSQKNYLAWYQQKPGKAPKLLIYWASTRESGVPSRFSGSGSGTDFTLTISSLQPEDFATYYCKQSYDLFTFGGGTKVEIKGGGGSGGGGEVQLVESGGGLVQPGGSLRLSCAASGFTFSSYWMHWVRQAPGKGLEWIGEIKPSNELTNVHEKFKDRFTISVDKAKNSAYLQMNSLRAEDTAVYYCTRTITTTEGYWFFDVWGQGTLVTVSSGCPPCPAPEAAGAPSVFLFPPKPKDTLMISRTPEVTCVVVDVSHEDPEVKFNWYVDGVEVHNAKTKPREEQYNSTYRVVSVLTVLHQDWLNGKEYKCKVSNKALPAPIEKTISKAKGQPREPQVYTLPPCREEMTKNQVSLSCAVKGFYPSDIAVEWESNGQPENNYKTTPPVLDSDGSFFLVSKLTVDKSRWQQGNVFSCSVMHEALHNHYTQKSLSLSPG
notes: also called GUCY2c CD3 bispecific
[1]
  DELFIA TRF: 148
[2]
  DELFIA TRF: 81
[3]
  DELFIA TRF: 107
[4]
  DELFIA TRF: 86.5
[5]
  DELFIA TRF: 96.5
[6]
  DELFIA TRF: 108
[7]
  DELFIA TRF: 106
[8]
  DELFIA TRF: 148
[9]
  DELFIA TRF: 112
[10]
  DELFIA TRF: 91.2
[11]
  DELFIA TRF: 114
[12]
  DELFIA TRF: 116
[13]
  DELFIA TRF: 100
[14]
  binding result: binds
[15]
  binding result: binds
